Columns and labels:
[1] = biological target: CD38 antigen on the surface of cells (U266 CD38+, MOLP8, Daudi, T-ALL cell lines, activated T cells) (human, UniProt P28907 1-300); experiment: cell-based or functional assay
[2] = biological target: T1, CD38-Fc protein (produced by LakePharma) (UniProt P28907 43-300, limits assumed); experiment: flow cytometry, CD38 Fc staining of CD38/TRAC double KO T cells transduced with rLV (FIG. 27C)
T1 construct: Staining reagent for CAR detection by flow cytometry; also called CD38-Fc fusion protein; not shown: Fc part
Protocol: The parameters are the following: T cells were activated by using Dynabeads CD3-CD28, the culture were made by using medium Xvivo+5% human serum heat inactivated+IL-2 20 ng/ml, a double KO (DKO) CD38-TRAC was performed by using a ratio of 2 μg TALEN mRNA per million of cells (5 million cells/cuvette); the transduction was performed by using rLV from Vectalys(France) at a MOI of 5.
The screening of the 4 CARs 25A10-v1, -v2, 28F5-v1 and -v2 after rLV transduction in DKO T cells has shown that all the CARs were expressed at the T cell surface with a high efficiency (>40%) and 3 of them above 80% (FIG. 27C). RQR8 expression was correlated with CAR expression (FIG. 27A). Most of the T cells were CD38 negative when T cells have been transduced by CD38 CARs (FIG. 27A). It is shown also that 60-85% of T cells endowed with the above 4 CARs were DKO TRAC/CD38 (FIG. 27B).

[3] = biological target: T1, CD38-Fc protein (produced by LakePharma); experiment: flow cytometry, CD38-Fc fusion protein staining of purified CD38-deficient T cells transfected with CAR mRNA (FIG. 15)
Protocol: T cells were purified from buffy coat samples and activated using anti-CD3/CD28 coated beads and IL-2. CD38-1 TALEN mRNA was transfected in T cells at day 4 after activation, 6 days later CD38 negative cells were purified by using magnetic separation (Miltenyi). The day after, CAR mRNAs were transfected. The CAR expression and degranulation capacity of CART cells were assessed 24 hours after the transfection. CAR expression and cytotoxic capacity of CART cells were assessed 48 hours after the transfection.
All CARs were detected 24 h after transfection except the 25A10-V3 However, the latter expressed anti-CD38 CAR above the background. The 13F11-V2, 25A10-V1, 25A10-V2 and 28F5-V2 were highly expressed (more than 80%).

| ratio of degranulation against U266 CD38+ and U266 CD38- [1] | % of T cells stained by CD38-Fc (CAR expression) [2] | % of T cells stained by CD38-Fc (CAR expression) [3] | Binder |
| --- | --- | --- | --- |
| > 2 ratio | > 40% | > 80% | 25A10-V1 CAR (other, signal peptide left out here) EVQLQQSGAELVRPGASVKLSCTASGFNIKDSLIHWVKQRPEQGLEWIGWIDPEDDKTKYAPKFQDKATLTADTSSNTAYLQLSTLTSEDTAIYYCVSRYINYYFAYWGQGTTLTVSSGGGGSGGGGSGGGGSDIVMTQSPSSLTVTAGEKVTMSCKSSQSLLHSGNQRNYLTWYQQKPGQPPKLLIYWASTRESGVPDRFTGSGSGTDFTLTISSVQAEDLAVYYCQNDYDYPYTFGGGTKLEIKGLAVSTISSFFPPGYQIYIWAPLAGTCGVLLLSLVITLYCKRGRKKLLYIFKQPFMRPVQTTQEEDGCSCRFPEEEEGGCELRVKFSRSADAPAYQQGQNQLYNELNLGRREEYDVLDKRRGRDPEMGGKPRRKNPQEGLYNELQKDKMAEAYSEIGMKGERRRGKGHDGLYQGLSTATKDTYDALHMQALPPR |
| > 2 ratio | > 40% | > 80% | 28F5-V2 CAR (other, Chimeric antigen receptor on T cells; signal peptide left out here) QIQLVQSGPELKKPGETVKISCKASGYTFTKYGMNWVKQTPGKGLKWMGWINTNSGEPTYAEEFKGRFAFSLETSASTAYLQINNLKNEDTATYFCARGAYYRYDGEVSYYAMDYWGQGTSVTVSSGGGGSGGGGSGGGGSQIILTQSPAIMSASLGERVTMTCTATSSLSSSYLHWYQQKPGSSPKLWIYSTSHLASGVPARFSGGGSGTSYSLTISSMEAEDAATYYCHQYHLSPYTFGGGTKLEIKTTTPAPRPPTPAPTIASQPLSLRPEACRPAAGGAVHTRGLDFACDIYIWAPLAGTCGVLLLSLVITLYCKRGRKKLLYIFKQPFMRPVQTTQEEDGCSCRFPEEEEGGCELRVKFSRSADAPAYQQGQNQLYNELNLGRREEYDVLDKRRGRDPEMGGKPRRKNPQEGLYNELQKDKMAEAYSEIGMKGERRRGKGHDGLYQGLSTATKDTYDALHMQALPPR |

Source: US20180236053A1 (CELLECTIS, published 2018)
